# In the supplement of paper PMC9112550, “Optimization of the antimicrobial peptide Bac7 by deep mutational scanning” (BMC Biology, 2022):
# Test system: Escherichia coli TOP10
# Experiment: shrunken log2 fold change of peptide-encoding DNA abundance (4.5 h post-induction vs induction); higher = less antimicrobial activity (less host growth inhibition)
# Conditions: time post-induction: 4.5 h; library: site-saturation at positions 5, 18, 19, 20
# 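Also: peptides expressed intracellularly from a pBAD plasmid library in pooled LB shake-flask culture, induced with 0.3% L-arabinose, DNA abundance read by NGS, three biological replicates, DESeq2 with apeglm shrinkage.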
row,Sequence,shrunken log2 fold change
1,RRIRCRPPRLPRPRPRPLNQPRP,-0.317
2,RRIRYRPPRLPRPRPRPNPVPRP,0.000723
3,RRIRERPPRLPRPRPRPDKGPRP,-0.0116
4,RRIRLRPPRLPRPRPRPWTFPRP,-0.0155
5,RRIRPRPPRLPRPRPRPCDHPRP,-0.128
6,RRIRDRPPRLPRPRPRPTDKPRP,-0.118
7,RRIRWRPPRLPRPRPRPAYQPRP,0.106
8,RRIRMRPPRLPRPRPRPLWGPRP,0.119
9,RRIRDRPPRLPRPRPRPRKNPRP,0.244
10,RRIRCRPPRLPRPRPRPTICPRP,-0.142
11,RRIRTRPPRLPRPRPRPTPGPRP,0.296
12,RRIRLRPPRLPRPRPRPKMVPRP,-0.146
13,RRIRIRPPRLPRPRPRPSYTPRP,-1.06
14,RRIRWRPPRLPRPRPRPTGPPRP,0.217
15,RRIRVRPPRLPRPRPRPDLQPRP,0.00798
16,RRIRIRPPRLPRPRPRPWQHPRP,0.0851
17,RRIRLRPPRLPRPRPRPTWDPRP,0.183
18,RRIRERPPRLPRPRPRPCPAPRP,-0.224
19,RRIRRRPPRLPRPRPRPQTPPRP,0.881
20,RRIRPRPPRLPRPRPRPYSYPRP,-0.228
21,RRIRCRPPRLPRPRPRPIVKPRP,0.0118

row,Sequence,shrunken log2 fold change
1,RRIRHRPPRLPRPRPRPDAPPRP,2.03
2,RRIRSRPPRLPRPRPRPFDGPRP,0.0042
3,RRIRCRPPRLPRPRPRPHDWPRP,0.112
4,RRIRARPPRLPRPRPRPQTHPRP,0.491
5,RRIRCRPPRLPRPRPRPCMQPRP,-0.345
6,RRIRKRPPRLPRPRPRPGADPRP,0.709
7,RRIRNRPPRLPRPRPRPCAKPRP,-0.0333
8,RRIRMRPPRLPRPRPRPPHPPRP,0.873
9,RRIRERPPRLPRPRPRPRMTPRP,0.0697
10,RRIRKRPPRLPRPRPRPGVAPRP,0.892
11,RRIRTRPPRLPRPRPRPCTEPRP,-0.237
12,RRIRPRPPRLPRPRPRPSAFPRP,0.191
13,RRIRIRPPRLPRPRPRPSFFPRP,-0.654
14,RRIRCRPPRLPRPRPRPMGKPRP,0.0173
15,RRIRCRPPRLPRPRPRPAEQPRP,0.252
16,RRIRKRPPRLPRPRPRPEIWPRP,2.45
17,RRIRSRPPRLPRPRPRPMVHPRP,-0.026
18,RRIRNRPPRLPRPRPRPPAWPRP,0.369
19,RRIRLRPPRLPRPRPRPCGFPRP,-0.0181
20,RRIRLRPPRLPRPRPRPTWIPRP,0.0209
21,RRIRERPPRLPRPRPRPPLFPRP,0.124

row,Sequence,shrunken log2 fold change
1,RRIRVRPPRLPRPRPRPTAMPRP,0.0686
2,RRIRYRPPRLPRPRPRPPLFPRP,-0.0411
3,RRIRMRPPRLPRPRPRPDSSPRP,0.0874
4,RRIRLRPPRLPRPRPRPWFLPRP,-0.449
5,RRIRFRPPRLPRPRPRPSNWPRP,-0.284
6,RRIRTRPPRLPRPRPRPRWCPRP,0.109
7,RRIRARPPRLPRPRPRPPLWPRP,1.17
8,RRIRNRPPRLPRPRPRPHDTPRP,-0.267
9,RRIRGRPPRLPRPRPRPPIHPRP,0.108
10,RRIRMRPPRLPRPRPRPHWPPRP,1.1
11,RRIRERPPRLPRPRPRPYSNPRP,-0.905
12,RRIRQRPPRLPRPRPRPCFTPRP,-0.684
13,RRIRWRPPRLPRPRPRPDDQPRP,-0.0297
14,RRIRTRPPRLPRPRPRPGAFPRP,2.41
15,RRIRQRPPRLPRPRPRPRDDPRP,0.538
16,RRIRPRPPRLPRPRPRPYTCPRP,-0.179
17,RRIRHRPPRLPRPRPRPDKRPRP,-0.0145
18,RRIRHRPPRLPRPRPRPEAKPRP,-0.0228
19,RRIRGRPPRLPRPRPRPRDDPRP,0.536
20,RRIRTRPPRLPRPRPRPPVCPRP,0.713
21,RRIRTRPPRLPRPRPRPMKKPRP,-0.115
